Test results reported in article PMC10629583, “Specific inhibition of an anticancer target, polo-like kinase 1, by allosterically dismantling its mechanism of substrate recognition” (Proceedings of the National Academy of Sciences of the …, 2023).
[ ]: non-standard residue; d: D form. The star is where a group is joined. FITC = O=C1OC2(c3ccc(O)cc3Oc3cc(O)ccc32)c2ccc(NC(=S)*)cc21; pT = C[C@@H](OP(=O)(O)O)[C@H](N)C(=O)O; Ahx = NCCCCCC(=O)O

Assays:
Conditions in all cases: both partners purified
[1] = target: T1, Plk1 polo-box domain, PBD1 (residues 345–603) WT (human, UniProt P53350 345-603); test: fluorescence polarisation; direct binding: FITC-Ahx-DPPLHSpTAI-NH2 with different concentrations of recombinant PBD1 WT or mutants
T1 construct: Polo-like kinase 1 (Plk1), polo-box domain, residues 345-603; TEV-PBD1 fragment in pET-Duet-1; A TEV site precedes PBD1 in the insert; also called PBD1 WT; Plk1 PBD; source: E. coli (purified as described for the crystallography construct, Rosetta strain)
T1 sequence (P53350 345-603): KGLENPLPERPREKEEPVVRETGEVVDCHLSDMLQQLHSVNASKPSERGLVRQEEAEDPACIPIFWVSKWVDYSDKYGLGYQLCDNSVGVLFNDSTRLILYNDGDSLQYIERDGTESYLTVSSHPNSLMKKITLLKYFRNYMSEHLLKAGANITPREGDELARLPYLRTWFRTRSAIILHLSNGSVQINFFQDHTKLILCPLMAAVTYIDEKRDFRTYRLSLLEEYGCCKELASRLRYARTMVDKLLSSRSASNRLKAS

[2] = target: T2, PBD1 (residues 345–603) F559D (human, UniProt P53350 345-603, F559D); test: fluorescence polarisation; inhibition assay: FITC-conjugated ligand (15 nM) mixed with PBD at its EC85 concentration, competitor varied; read about 30 min after reaction, 384-well format
T2 construct: Polo-like kinase 1 (Plk1), polo-box domain, residues 345-603, F559D; also called F559D mutant protein; source: E. coli (purified as described for the crystallography construct, Rosetta strain)
T2 sequence (P53350 345-603 F559D): as the sequence (P53350 345-603) above, with F215D counted along it

[3] = target: T3, PBD1 (residues 345–603) F559E (human, UniProt P53350 345-603, F559E); test: as above
T3 construct: Polo-like kinase 1 (Plk1), polo-box domain, residues 345-603, F559E; also called F559E mutant; source: E. coli (purified as described for the crystallography construct, Rosetta strain)
T3 sequence (P53350 345-603 F559E): as the sequence (P53350 345-603) above, with F215E counted along it

[4] = target: T4, PBD1 (residues 345–603) F559K (human, UniProt P53350 345-603, F559K); test: as above
T4 construct: Polo-like kinase 1 (Plk1), polo-box domain, residues 345-603, F559K; also called F559K mutant; source: E. coli (purified as described for the crystallography construct, Rosetta strain)
T4 sequence (P53350 345-603 F559K): as the sequence (P53350 345-603) above, with F215K counted along it

[5] = target: T5, PBD1 (residues 345–603) F559R (human, UniProt P53350 345-603, F559R); test: as above
T5 construct: Polo-like kinase 1 (Plk1), polo-box domain, residues 345-603, F559R; also called F559R mutant; source: E. coli (purified as described for the crystallography construct, Rosetta strain)
T5 sequence (P53350 345-603 F559R): as the sequence (P53350 345-603) above, with F215R counted along it

Measured: binding result

B1: FITC-Ahx-DPPLHSpTAI-NH2 (peptide)
peptide: {FITC-Ahx}-DPPLHS[pT]AI-NH2
SMILES: CC[C@H](C)[C@H](NC(=O)[C@H](C)NC(=O)[C@@H](NC(=O)[C@H](CO)NC(=O)[C@H](Cc1c[nH]cn1)NC(=O)[C@H](CC(C)C)NC(=O)[C@@H]1CCCN1C(=O)[C@@H]1CCCN1C(=O)[C@H](CC(=O)O)NC(=O)CCCCCNC(=S)Nc1ccc2c(c1)C(=O)OC21c2ccc(O)cc2Oc2cc(O)ccc21)[C@@H](C)OP(=O)(O)O)C(N)=O
notes: also called FITC-conjugated phosphopeptide; FITC-conjugated ligand
binds: [1] | [2] | [3] | [4] | [5]
